Measured values taken from patent US20240189443A1, “PD-L1 AND TLR7 DOUBLE-TARGETING NANOBODY COUPLING DRUG AND USE THEREOF IN ANTI-TUMOR” (SHANGHAI INSTITUTE OF MATERIA MEDICA, CHINESE ACADEMY OF …, priority 2021, published 2024).
Numbering of substitutions follows the chain as printed. Values joined by “and” are separate entries in the source; they are usually repeats but may differ in a detail not shown here. Equal entries are not always repeated. Blank lines part the entries; values can stand above or below the molecule they belong to.

How the values were obtained:
[1] = test system: induced high-expression PD-L1 CT26 tumor cell; assay: Combined anti-tumor effect of Nb16 and SZU-101, IFN-γ-induced CT26 subcutaneous tumor model; format: in vivo, BALB/c mouse; settings: Nb16 10 mg/kg intraperitoneal, SZU-101 3 mg/kg peritumoral; for Tumor inhibitory rate / Endpoint tumor Weight: day 15; for Endpoint tumor Weight: individual mice
Procedure: The mouse CT26 tumor cells were recovered and passaged, it was ensured that tumor cells at least have been subjected to 3 generations during tumor-bearing, and mouse IFN-γ with a final concentration of 100 ng/mL was used to induce tumor cells for 24 h before tumor-bearing, so that the cell surface thereof highly expresses PD-L1; the induced high-expression PD-L1 CT26 tumor cell was inoculated subcutaneously into a female BALB/c mouse, wherein the inoculation amount was 1×10^6 cells/one; and randomly grouping mice into four groups (9 per group), i.e., a same-type control group (mFc), a nano-antibody Nb16 group (Nb16), a TLR7 agonist SZU-101 group (SZU-101) and a combined treatment group (NB16/SZU-101), wherein the administration amount of the mFc and the Nb16 was 10 mg/kg, and intraperitoneal administration was performed; and the administration amount of the SZU-101 was 3 mg/kg, and the tumor was administered circumferentially. The administration cycle were Nb16 administered on D1, D5, D9, D12, and D14 and SZU-101 administered on D9-D14 (3A). The body weight of the mouse and the tumor major diameter (L) and the short diameter (W) in the administration cycle were observed and recorded until the anatomical endpoint, and the tumor volume V=(L×W×W)/2 was calculated, a tumor growth curve was drawed, and the tumor inhibition rate was calculated; and the experiment was terminated on the fifteenth day. After performing euthanasia, the animal was dissected, and the subcutaneous tumor was taken out.

PD-1/PD-L1 [2] = molecular target: T1, PD-1/PD-L1 (Mus musculus, UniProt Q9EP73); assay: In vitro activity of candidate nanobodies NB9, NB10, NB11, NB17 (blocking or non-blocking type); format: binding
Target sequence in this assay (Q9EP73 19-239): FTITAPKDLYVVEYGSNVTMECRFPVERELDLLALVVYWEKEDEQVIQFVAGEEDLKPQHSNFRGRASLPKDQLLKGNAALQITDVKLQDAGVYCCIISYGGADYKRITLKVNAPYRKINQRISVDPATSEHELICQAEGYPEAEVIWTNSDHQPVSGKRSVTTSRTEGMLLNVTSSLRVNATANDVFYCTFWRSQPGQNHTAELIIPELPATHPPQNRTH

mPD-L1-Fc fusion protein [3] = molecular target: T2, mPD-L1-Fc fusion protein (mouse; human, UniProt Q9EP73 19-239); assay: competition ELISA, coated mPD-L1-Fc, 10 µg/mL mouse PD-1-Fc-Biotin, SA-HRP detection
T2 construct: extracellular domain; also called Mouse PD-L1 (ECD)-pFUSE-hIgG1-Fc; not shown: Fc of human IgG1 from vector pFUSE-hIgG1-Fc
Procedure: (§1) Coating the plate with mPD-L1-Fc fusion protein at 4° C. overnight, then the plate was sealed with BSA at 37° C. for 2 hours, Nb16 nanobodies of different concentrations and 10 μg/mL mouse PD-1-Fc-Biotin fusion protein were added in each hole., After reacting at room temperature for 1 hour, the plate was washed and antibody SA-HRP was added, and the plate reacted at room temperature for 1 hour. After washing, a color developing solution was added, and an absorption value was read at a wavelength of 450 nm.

mPD-L1-Fc fusion protein [4] = molecular target: T2, mPD-L1-Fc fusion protein; assay: ELISA, coated mPD-L1-Fc, anti-mouse HRP detection
Procedure: Coating the plate with mPD-L1-Fc fusion protein at 4° C. overnight, then the plate was sealed with BSA at 37° C. for 2 hours, Nb 16 nanobodies of different concentrations were added in each hole, reacted at room temperature for 1 hour, and the plate were washed and goat anti-mouse horseradish peroxidase labeled antibody was added, and reacting at room temperature for 1 hour. After washing, a color developing solution was added, and an absorption value was read at a wavelength of 450 nm.

[5] = molecular target: T3, mouse PD-L1 on cell strain HEK293T/mPD-L1 (mouse, UniProt Q9EP73 19-290); assay: flow cytometry on HEK293T/mPD-L1, anti-mouse IgG Fc (PE)
T3 construct: whole, on cells

PD-1/PD-L1 [6] = molecular target: T1, PD-1/PD-L1; assay: ELISA PD-1/PD-L1 blocking activity assay of nanobody Nb16; format: binding; parameters: A Mouse PD-L1 (ECD)-pFUSE-hIgG1-Fc vector is constructed; made in house; host or cells: HEK293F (PD-L1-Fc)
Procedure: as §1
Target sequence in this assay (Q9EP73 19-239 limits assumed): as the sequence (Q9EP73 19-239) above

[7] = test system: IFN-γ-induced high-expression PD-L1 CT26; assay: IFN-γ-induced high-expression PD-L1 CT26 subcutaneous tumor-bearing model, conjugate vs combined administration; format: in vivo, BALB/c mouse; settings: Day 14, Nb16 or Nb16-SZU-101 10 mg/kg, SZU-101 0.5 mg/kg, intraperitoneal, 4 doses
Procedure: In an IFN-γ-induced high-expression PD-L1 CT26 subcutaneous tumor-bearing BALB/c mouse model, mice were randomly divided into four groups, namely an mFc group, an Nb16 group, an Nb16/SZU-101 combined administration group and an NB16-SZU-101 nanobody conjugate drug group, wherein the administration dosage of the mFc or Nb 16 or Nb16-SZU-101 was 10 mg/kg, the administration mode was intraperitoneal administration, the administration dosage of the SZU-101 was 0.5 mg/kg, and the administration mode was intraperitoneal administration; the drug was administered on Day 2, Day 6, Day 10 and Day 13 for a total of 4 times. Tumor sizes were measured 2-3 times per week, and tumor growth curves were drawn; and anatomical weighing and photographing were performed on mice at Day 14.

HEK293T/hPD-L1 = molecular target: T4, HEK293T/hPD-L1 (Homo sapiens, UniProt Q9NZQ7); assay: Human PD-L1 binding activity assay of candidate anti-human PD-L1 nanobodies (flow cytometry); settings: nanobody 10 μg/mL
T4 construct: expressed in transfected cells; host or cells: HEK293T
Procedure: The cell strain HEK293T/hPD-L1 was digested, and centrifugationwas performed to remove the supernatant; the cells were washed one time with PBS and the cell density was adjusted to 2.5×10^6 cells/mL; each cell sample was added to a 100 μL cell suspension, that is, a 2.5×10^5 cell/sample was comprised; different anti-human PD-L1 candidate nanobodies (the concentration is 10 μg/mL) were respectively added to the samples; incubating for 20 min at 4° C.; centrifuging, removing supernatant, and the cells were washing once with PBS; using diluted antibody anti-human IgG Fc (FITC) as secondary antibody, and the cells were re-suspended; incubating at 4° C. for 20 min; centrifuging, removing supernatant, the cells were washing twice with PBS, and transferred to a flow tube; and was performed on-machine detection by using a flow cytometer to obtain the binding activity of the candidate nanobody and human PD-L1, as shown in FIG. 13.

[8] = molecular target: T5, human PD-1/PD-L1 (HEK293T/hPD-L1) (Homo sapiens, UniProt Q9NZQ7); assay: Human PD-1/PD-L1 blocking activity assay of candidate anti-human PD-L1 nanobodies (flow cytometry); format: binding; settings: nanobody 10 μg/mL, human PD-1-his 1 μg/mL
T5 construct: expressed in transfected cells; host or cells: HEK293T
Procedure: The cell strain HEK293T/hPD-L1 was digested, and centrifugationwas performed to remove the supernatant; the cells were washed one time with PBS and the cell density was adjusted to 2.5×10^6 cells/mL; each cell sample was added to a 100 μL cell suspension, that is, a 2.5×10^5 cell/sample was comprised; and the human PD-1-his protein (the concentration was 1 μg/mL) and the anti-human PD-L1 candidate nanobody (the concentration was 10 μg/mL) were respectively added to the sample; the cells were incubated for 20 min at 4° C.; centrifuging, supernatant was removed, and the cells were washed once with PBS; using diluted antibody anti-his-APC as secondary antibody, and the cells were re-suspended; incubated at 4° C. for 20 min; centrifuging, supernatant was removed, the cells were washedtwice with PBS, and was transferred to a flow tube; and was performed on-machine detection by using a flow cytometer to obtain the PD-1/PD-L1 blocking activity of the candidate nanobody, as shown in FIG. 14.

human PD-L1 = human PD-L1 (Homo sapiens, UniProt Q9NZQ7); assay: CDR affinity maturation of anti-human PD-L1 nanobodies, affinity compared with original antibody; format: binding; settings: relative to original antibody h_Nb1 VHH or h_Nb2 VHH
From the text: Wherein, the original antibody corresponding to the sequence shown in SEQ ID NO.92-106 is h_Nb1 VHH (SEQ ID NO.21); and the original antibody corresponding to the sequence shown in SEQ ID NO.107 -117 is h_Nb2 VHH (SEQ ID NO.25).

T5 sequence (Q9NZQ7 19-290): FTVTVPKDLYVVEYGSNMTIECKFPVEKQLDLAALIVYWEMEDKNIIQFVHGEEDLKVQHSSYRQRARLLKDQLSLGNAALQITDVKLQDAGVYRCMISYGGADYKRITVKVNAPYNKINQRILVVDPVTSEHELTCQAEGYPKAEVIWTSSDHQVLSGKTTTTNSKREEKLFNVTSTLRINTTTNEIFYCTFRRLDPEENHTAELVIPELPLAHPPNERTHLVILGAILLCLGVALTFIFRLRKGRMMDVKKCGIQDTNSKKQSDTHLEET
T4 sequence (Q9NZQ7 19-290): as above
T2 sequence (Q9EP73 19-239 limits assumed): as the sequence (Q9EP73 19-239) above
human PD-L1, sequence (Q9NZQ7 19-290): as the sequence (Q9NZQ7 19-290) above
T3 sequence (Q9EP73 19-290): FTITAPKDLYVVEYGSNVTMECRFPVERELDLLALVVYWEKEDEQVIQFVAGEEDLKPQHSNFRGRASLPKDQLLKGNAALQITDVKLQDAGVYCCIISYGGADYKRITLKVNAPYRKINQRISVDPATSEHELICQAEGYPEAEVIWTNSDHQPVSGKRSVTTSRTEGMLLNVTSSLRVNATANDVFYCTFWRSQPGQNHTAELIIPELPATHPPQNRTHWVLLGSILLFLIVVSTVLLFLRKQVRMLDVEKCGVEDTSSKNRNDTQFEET

Molecule: COCCOc1nc(N)c2nc(O)n(Cc3ccc(CNC(=O)CCC(=O)O)cc3)c2n1 [SZU-101]
Anti-tumor effect [1]: significantly inhibit tumor growth
Tumor inhibitory rate [1]: 49%
Endpoint tumor Weight [1]: 0.298 g and 0.560 g and 0.330 g and 0.278 g and 0.354 g and 0.516 g and 0.286 g and 0.328 g and 0.426 g

Blocking type or non-blocking type nanobody (PD-1/PD-L1 [2]): non-blocking
B1: Nb17: anti-PD-L1 nanobody, VHH SEQ ID NO: 17 (protein)
VHH: QVQLQESGGGSVQAGGSLRLSCAASGYSARRRMGWFRQAPGKEREGVASIYTAGGRTWYADSVKGRFTISQDNAKNTVYLQMNSLKPDDTAMYYCAASPAPYGAESLSEADFAYWGQGTQVTVSS
modifications: Nb17 Amino acid sequence of VHH

Blocking type or non-blocking type nanobody (PD-1/PD-L1 [2]): non-blocking
B2: Nb11: anti-PD-L1 nanobody, VHH SEQ ID NO: 13 (protein)
VHH: QVQLQESGGGSVQAEGSLRLSCSAPIYVTYYGTYCMGWFRQAPGKEREGVAGISGDGRTSYADSVKGRFTVSKDNAKNTLYLEMNSLKPEDTAMYYCALRIGGYCDTLNGADFRYWGQGTQVTVSS
modifications: Nb11 Amino acid sequence of VHH

Blocking type or non-blocking type nanobody (PD-1/PD-L1 [2]): blocking type
B3: Nb9: anti-PD-L1 nanobody, VHH SEQ ID NO: 5 (protein)
VHH: QVQLQESGGGLVHPGGSLRLSCAASGFTFSSYTMRWVRQAPGKGLEWVSGINNVGGSTLYADSVKGRFTISRDNAKNTLYLQMNSLQPDDTAMYYCATGIIGSGLETATYRGQGTQVTVSS
modifications: Nb9 Amino acid sequence of VHH

IC50 (mPD-L1-Fc fusion protein [3]): 1.02 µg/mL
EC50 (mPD-L1-Fc fusion protein [4]): 0.045 µg/mL
B4: nanobody Nb16 (Fc fusion)
chain: QVQLQESGGGSVQAGGSLRLSCAASGYTDRNYWMGWFRQAPGKEREGVAALYTRTGSTYYADSVKGRFTISHDNAKNTLYLQMNSLKPEDTAVYYCAADSNAYGLAPLHHYWGQGTQVTVSS
notes: also called bare anti-Nb16; original PD-L1 nanobody; not shown: Fc of mouse IgG2b from vector pFUSE-mIgG2b-Fc

binding result [5]: binds
B5: PD-L1 and TLR7 double-targeting nanobody coupling drug Nb16-SZU-101 (Fc fusion)
chain: B4 chain
modifications: TLR7 agonist SZU-101 coupled through SZU-101-NHS active ester to amino groups, sites not given; coupling degree 4.5
notes: not shown: Fc of mouse IgG2b from vector pFUSE-mIgG2b-Fc

Blocking of PD-1/PD-L1 binding (PD-1/PD-L1 [6]): effectively blocked
B6: Nb16: anti-PD-L1 nanobody, VHH sequence SEQ ID NO: 1, expressed as Fc fusion (protein)
chain: B4 chain
modifications: left off: a dimerising Fc or GST
Anti-tumor effect [1]: significantly inhibit tumor growth
Tumor inhibitory rate [1]: 35%
Endpoint tumor Weight [1]: 0.806 g and 0.505 g and 0.460 g and 0.450 g and 0.250 g and 0.381 g and 0.664 g and 0.361 g and 0.418 g
Tumor inhibitory rate [7]: 30%
Endpoint tumor Weight ([7]; individual mice): 0.263 g and 0.591 g and 0.342 g and 0.334 g and 0.494 g and 0.442 g

Binding activity with human PD-L1 (HEK293T/hPD-L1): good binding activity
Blocking of human PD-1/PD-L1 binding [8]: effectively block
B7: h_Nb1: anti-human PD-L1 nanobody, VHH SEQ ID NO: 21 (protein)
VHH: DVQLQESGGGLVQPGGSLRLSCAASGFTFSSYAMSWVRQAPGKGLEWVSDINSGGDNTDYADSVKGRFTISRDNAKNTLYLQMNSLKPEDTAVYYCARGPKLCFSSWGQGTQVTVSS
modifications: h_Nb1 Amino acid sequence of VHH

Blocking type or non-blocking type nanobody (PD-1/PD-L1 [2]): blocking type
B8: Nb10: anti-PD-L1 nanobody, VHH SEQ ID NO: 9 (protein)
VHH: QVQLQESGGGSVQAGGSLRLSCAASGYRFCRLAMRWYRQAPGKEREFVSFIDSGGTTSYADSVKGRFTISRDSAKNTVYLQMNSLKPEDTGMYYCNSDILGGGGGCPVSSYWGQGTQVTVSS
modifications: Nb10 Amino acid sequence of VHH

Binding activity with human PD-L1 (HEK293T/hPD-L1): good binding activity
Blocking of human PD-1/PD-L1 binding [8]: effectively block
B9: h_Nb2: anti-human PD-L1 nanobody, VHH SEQ ID NO: 25 (protein)
VHH: DVQLQESGGGLVQPGGSLRLSCAASGFTFGDRWMYWLRQAPGKGLEWVSSINPAGRSTYYADSVKGRFTISRDNAKNTLYLQMNSLKSEDTAVYYCTKDPGGYQKGQGTQVTVSS
modifications: h_Nb2 Amino acid sequence of VHH

Increased relative affinity (human PD-L1): 8.4837
B10: h_Nb2_G101Y: affinity-matured h_Nb2 VHH, SEQ ID NO: 112 (protein)
VHH: B9 VHH with G102Y
modifications: h_Nb2_G101Y
